A word on the Kd: it is a measure of binding affinity in units of concentration.

The target of this experiment is NEK7-mut (NEK7 with deletion of the binding sites) (UniProt Q8TDX7). Description: SPR; Biacore T200; NEK7 or NEK7-mut immobilised by amine coupling; SDHB flowed at different concentrations; 1:1 Langmuir binding model. Background: In SPR one partner is held on a chip, and binding of the other changes the refractive index at the surface.
Chain of NEK7-mut (NEK7 with deletion of the binding sites) (Q8TDX7 whole entry, stated change not applied): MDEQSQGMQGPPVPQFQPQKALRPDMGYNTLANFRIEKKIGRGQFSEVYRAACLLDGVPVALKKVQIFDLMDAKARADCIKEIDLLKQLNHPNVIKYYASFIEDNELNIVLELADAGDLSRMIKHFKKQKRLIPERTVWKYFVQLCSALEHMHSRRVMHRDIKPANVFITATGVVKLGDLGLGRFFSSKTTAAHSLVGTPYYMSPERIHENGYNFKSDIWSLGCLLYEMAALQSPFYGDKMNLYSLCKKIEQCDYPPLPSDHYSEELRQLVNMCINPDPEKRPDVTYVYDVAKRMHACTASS

B1: human SDHB recombinant protein (Ag29868, Proteintech) (natural protein)
chain: AQTAAATAPRIKKFAIYRWDPDKAGDKPHMQTYEVDLNKCGPMVLDALIKIKNEVDSTLTFRRSCREGICGSCAMNINGGNTLACTRRIDTNLNKVSKIYPLPHMYVIKDLVPDLSNFYAQYKSIEPYLKKKDESQEGKQQYLQSIEEREKLDGLYECILCACCSTSCPSYWWNGDKYLGPAVLMQAYRWMIDSRDDFTEERLAKLQDPFSLYRCHTIMNCTRTCPKGLNPGKAIAEIKKMMATYKEKKASV
Regarding B1, the equilibrium dissociation constant (Kd) was 4.75 µM.

The record behind these values is paper PMC12663309.
